Test results reported in publication PMC12407084.

Molecular target: Taxol-stabilized microtubules polymerized from bovine brain tubulin, Q6B856
Test: fluorescence microscopy of microtubule decoration by GFP-tagged protein
Settings: chain shown with the change; 100 nM GFP-tagged Ndc80c Bonsai protein; rhodamine-labeled taxol-stabilized microtubules; parent: est. 12000; read off a plot

Chain of Taxol-stabilized microtubules polymerized from bovine brain tubulin, Q6B856 (chain, as listed by the source, chain 1 of 2): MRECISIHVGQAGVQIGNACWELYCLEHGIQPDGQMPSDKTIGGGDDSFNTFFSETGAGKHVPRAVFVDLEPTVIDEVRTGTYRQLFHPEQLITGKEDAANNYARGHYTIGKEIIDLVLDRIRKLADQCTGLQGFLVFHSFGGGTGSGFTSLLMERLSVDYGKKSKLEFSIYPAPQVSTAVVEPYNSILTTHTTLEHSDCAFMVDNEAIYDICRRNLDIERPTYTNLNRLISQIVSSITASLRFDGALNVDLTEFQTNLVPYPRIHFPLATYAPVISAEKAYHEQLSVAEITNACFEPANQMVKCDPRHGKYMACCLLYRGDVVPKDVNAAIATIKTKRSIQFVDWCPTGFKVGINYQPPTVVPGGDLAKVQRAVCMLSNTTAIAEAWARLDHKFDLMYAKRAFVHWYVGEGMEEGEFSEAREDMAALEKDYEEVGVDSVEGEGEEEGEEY
Chain of Taxol-stabilized microtubules polymerized from bovine brain tubulin, Q6B856 (Q6B856 whole entry, chain 2 of 2): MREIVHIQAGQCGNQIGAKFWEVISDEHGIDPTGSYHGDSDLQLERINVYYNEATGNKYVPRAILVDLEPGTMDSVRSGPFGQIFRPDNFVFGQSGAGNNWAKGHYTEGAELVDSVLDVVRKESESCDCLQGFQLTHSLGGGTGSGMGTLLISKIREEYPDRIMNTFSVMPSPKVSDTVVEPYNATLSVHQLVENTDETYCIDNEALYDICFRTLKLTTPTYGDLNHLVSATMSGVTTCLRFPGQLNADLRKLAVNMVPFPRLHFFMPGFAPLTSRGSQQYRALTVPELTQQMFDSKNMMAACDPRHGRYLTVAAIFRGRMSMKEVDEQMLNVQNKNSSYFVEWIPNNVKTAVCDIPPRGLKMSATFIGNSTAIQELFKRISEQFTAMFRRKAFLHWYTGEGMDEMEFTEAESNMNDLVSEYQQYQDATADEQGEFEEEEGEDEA

Row | Binder | response [a.u.]
1 | Human Ndc80c Bonsai Ndc80-GFP (WT) Nuf2:K33D; Nuf2:K41D; Nuf2:K115D (protein) chain 1: MKRSSVSSGGAGRLSMQELRSQDVNKQGLYTPQTKEKPTFGKLSINKPTSERKVSLFGKRTSGHGSRNSQLGIFSSSEKIKDPRPLNDKAFIQQCIRQLCEFLTENGYAHNVSMKSLQAPSVKDFLKIFTFLYGFLCPSYELPDTKFEEEVPRIFKDLGYPFALSKSSMYTVGAPHTWPHIVAALVWLIDCIKIHTAMKESSPLFDDGQPWGEETEDGIMHNKLFLDYTIKCYESFMSGADSFDEMNAELQSKLKDLFNVDAFKLESLEAKNRALNEQIARLEQERSTANKANAERLKRLQKSADLYKDRLGLEIRKIYGEKLQFIFTNIDPKNPESPFMFSLHLNEARDYEVSDSAPHLEGLAEFQENVRKTNNFSAFLANVRKAFTATVYN chain 2: METLSFPRYNVAEIVIHIRNKILTGADGKNLTDNDLYPNPDPEVLHMIYMRALQIVYGIRLEHFYMMPVNSEVMYPHLMEGFLPFSNLVTHLDSFLPICRVNDFETADILCPKADRTSRFLSGIINFIHFREACRETYMEFLWQYKSSADKMQQLNAAHQEALMKLERLEKEVDEDTTVTIPSAVYVAQLYHQVSKIEWDYECEPGMVKGIHHGPSVAQPIHLDSTQLSRKFISDYLWSLVDTEW | 160
2 | Human Ndc80c Bonsai Ndc80-GFP (WT) Hec1:K166D (protein) chain 1: MKRSSVSSGGAGRLSMQELRSQDVNKQGLYTPQTKEKPTFGKLSINKPTSERKVSLFGKRTSGHGSRNSQLGIFSSSEKIKDPRPLNDKAFIQQCIRQLCEFLTENGYAHNVSMKSLQAPSVKDFLKIFTFLYGFLCPSYELPDTKFEEEVPRIFKDLGYPFALSDSSMYTVGAPHTWPHIVAALVWLIDCIKIHTAMKESSPLFDDGQPWGEETEDGIMHNKLFLDYTIKCYESFMSGADSFDEMNAELQSKLKDLFNVDAFKLESLEAKNRALNEQIARLEQERSTANKANAERLKRLQKSADLYKDRLGLEIRKIYGEKLQFIFTNIDPKNPESPFMFSLHLNEARDYEVSDSAPHLEGLAEFQENVRKTNNFSAFLANVRKAFTATVYN chain 2: METLSFPRYNVAEIVIHIRNKILTGADGKNLTKNDLYPNPKPEVLHMIYMRALQIVYGIRLEHFYMMPVNSEVMYPHLMEGFLPFSNLVTHLDSFLPICRVNDFETADILCPKAKRTSRFLSGIINFIHFREACRETYMEFLWQYKSSADKMQQLNAAHQEALMKLERLEKEVDEDTTVTIPSAVYVAQLYHQVSKIEWDYECEPGMVKGIHHGPSVAQPIHLDSTQLSRKFISDYLWSLVDTEW | 400
